The nanobody polyreactivity screen of Harvey et al. (2022)

Test: yeast display, Sf9 membrane polyspecificity reagent, FACS + sequencing; frameworks hold sequencing errors
Method in brief: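 A nanobody's polyreactivity label depends on the gate it was sorted from. Yeast display cells were stained with 10% biotinylated, detergent-solubilized Sf9 membrane reagent for 1 hour at 4 °C, enriched on streptavidin microbeads and sorted by FACS. The low and high (top ~1%) gates were set on anti-HA fluorescence for expression and streptavidin fluorescence for reagent binding.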

| Sequence | polyreactivity (PSR sort gate) |
| --- | --- |
| QVQLVESGGGLVQAGGSLRLSCAASGFTFNKYAMGWYRQEPGKERELVAAISVSGSRTYYADSVKGRFTISRDNAKNTFYLQMNSLKPEDTAVYYCAATHYSQVSDDYWGQGTQVTVSS | high polyreactivity |
| QVQLVESGGGLVQAGGSLRLSCAASGFTFNKYDMGWYRQAPGKERELVAVITWSGGSTYYADSVKGRFTISRDNAKNTVYLQMKSLKPEDTAVYYCNAEAPRYTYGRMDYWGQGTQVTVSS | low polyreactivity |
| QVQLVESGGGLVQAGGSLRLSCAASGFTFNNYAMGWYRQAPGKERELVAAISSVGRTYYADSVKGRFTISRDNAKNTVYLQLNSLKPEDTAVYYCAVVYPARGSGNDSWGQGTQVTLSS | high polyreactivity |
| QVQLVESGGGLVQAGGSLRLSCAASGFTFNPNAMGWYRQAPGKERELVAAITWSSGRTYYADSVKGRFTISRDNAKNTVYLQMNSLKPEDTAVYYCAARGYSYNYDYWGQGTQVTVSS | high polyreactivity |
| QVQLVESGGGLVQAGGSLRLSCAASGFTFNRNAMGWYIQAPGKERELVAAISWSGGSTYYADSVKGRFTISRDNAKNTVYLQMNSLKPEDTAVYYCAKGYRRVYGPFYYWGQGTQVTVSS | low polyreactivity |
| QVQLVESGGGLVQAGGSLRLSCAASGFTFNRYAMGWYRQAPGKERELVAAISRSTATTYYADSVKGRFTISRDNAKNTVYLQMNSLKPEDTAVYYCNAPQRYWPPYGYWGQGTQVTVSS | high polyreactivity |
| QVQLVESGGGLVQAGGSLRLSCAASGFTFNWYAMAWYRQAPGKERELVATINSGGSTYYADSVKGRFTISRDNAKNTVYLQMISLKPEDTAVYYCNRTHRRRYVKSAYIYWGQGTQVTVSS | low polyreactivity |
| QVQLVESGGGLVQAGGSLRLSCAASGFTFNYYAMGGYRQAPGKERELVAAIDSGTSTNYADSVKGRFTISRDNAKNTVYLQMNSLKPEDTAVYYCAADPGIFDGIFDYWGQGSQVTVSS | low polyreactivity |
| QVQLVESGGGLVQAGGSLRLSCAASGFTFNYYAMGWYRQAPGTERELVAAITSSGGSTYYADSVKGRFTISRDNAKNTVYLLMNSLKPEDTAVYYCNAAVYDHRYIYGFDYWGQGTQVTVSS | high polyreactivity |
| QVQLVESGGGLVQAGGSLRLSCAASGFTFPAYVMRWYRQAPGKERELVAAISKSGGSTYYADSVKGRFTISRDNAKNTVYLQMNCLKPEDTAVYYCAKYWVTRRFQYDYWGQGTQVTVSS | high polyreactivity |
| QVQLVESGGGLVQAGGSLRLSCAASGFTFPDYAMGWYRQAPAKERELVAAISSDGSTYYADSVNGRFTISRDNAHNTVYLQMNSLKPEDTAVYYCAAYVVWLYGYDYWGQGTQVTVSS | low polyreactivity |
| QVQLVESGGGLVQAGGSLRLSCAASGFTFPGYARGWYRQAPGKERELVAAISRGGAGTYYADSVKGRFTISRDNAKNTVYLQMNSLKPEDTAVYYCAAVYYVDYPDGNYEYWGQGTQVTVSS | high polyreactivity |
| QVQLVESGGGLVQAGGSLRLSCAASGFTFPGYTMGWYRQAPGKERELVAAITWSGGSTYYADSVKGRFTISRDTAKNTVYLQMNSLKPEDTAVYYCAAKYGAYYGNRDYWGQGTQVTVSS | high polyreactivity |
| QVQLVESGGGLVQAGGSLRLSCAASGFTFPHYAMGRYRQAPGKERELVAAINGGDTRTYYADSVKGRFTSSRDNAKNTVYLQRNSLKPEDTAVYYCAADREAGGTRLSRDYYWGQGTQVTVSS | high polyreactivity |
| QVQLVESGGGLVQAGGSLRLSCAASGFTFPKYAMGWYRQAPGKERELVAAISYRGGSTYYADSVKGRFTISRDNAKNTVYLQMNSLKPEDTAVYYCAAEIPHAPYEYWGQGTQVTVSS | high polyreactivity |
| QVQLVESGGGLVQAGGSLRLSCAASGFTFPLYAMGWYRQAPGKERELVAVISRSGGSTYYADSVKGRFTISRDNAKNTVYLQMNSLKPEDTAVYYCATRRRPQYNKYDYWGQGTQVTVSS | high polyreactivity |
